The target in assay [1] is NMDAR of rat GluN1-1b WT with WT GluN2A, on transfected HEK-293 cells (rat) (UniProt Q00959).
Assay [2] has as its target Endogenous NMDAR (GluN1 subunit) of mouse cortical neurons and mouse brain (mouse (endogenous in cortical neurons of Swiss mice)) (UniProt P35438).
Assay [3] deals with NMDAR of rat GluN1-1b WT with WT GluN2A, on transfected HEK-293 cells (rat) (UniProt Q00959). The source holds these as a separate data set.

UniProt Q00959, sequence (Q00959 whole entry, looked up): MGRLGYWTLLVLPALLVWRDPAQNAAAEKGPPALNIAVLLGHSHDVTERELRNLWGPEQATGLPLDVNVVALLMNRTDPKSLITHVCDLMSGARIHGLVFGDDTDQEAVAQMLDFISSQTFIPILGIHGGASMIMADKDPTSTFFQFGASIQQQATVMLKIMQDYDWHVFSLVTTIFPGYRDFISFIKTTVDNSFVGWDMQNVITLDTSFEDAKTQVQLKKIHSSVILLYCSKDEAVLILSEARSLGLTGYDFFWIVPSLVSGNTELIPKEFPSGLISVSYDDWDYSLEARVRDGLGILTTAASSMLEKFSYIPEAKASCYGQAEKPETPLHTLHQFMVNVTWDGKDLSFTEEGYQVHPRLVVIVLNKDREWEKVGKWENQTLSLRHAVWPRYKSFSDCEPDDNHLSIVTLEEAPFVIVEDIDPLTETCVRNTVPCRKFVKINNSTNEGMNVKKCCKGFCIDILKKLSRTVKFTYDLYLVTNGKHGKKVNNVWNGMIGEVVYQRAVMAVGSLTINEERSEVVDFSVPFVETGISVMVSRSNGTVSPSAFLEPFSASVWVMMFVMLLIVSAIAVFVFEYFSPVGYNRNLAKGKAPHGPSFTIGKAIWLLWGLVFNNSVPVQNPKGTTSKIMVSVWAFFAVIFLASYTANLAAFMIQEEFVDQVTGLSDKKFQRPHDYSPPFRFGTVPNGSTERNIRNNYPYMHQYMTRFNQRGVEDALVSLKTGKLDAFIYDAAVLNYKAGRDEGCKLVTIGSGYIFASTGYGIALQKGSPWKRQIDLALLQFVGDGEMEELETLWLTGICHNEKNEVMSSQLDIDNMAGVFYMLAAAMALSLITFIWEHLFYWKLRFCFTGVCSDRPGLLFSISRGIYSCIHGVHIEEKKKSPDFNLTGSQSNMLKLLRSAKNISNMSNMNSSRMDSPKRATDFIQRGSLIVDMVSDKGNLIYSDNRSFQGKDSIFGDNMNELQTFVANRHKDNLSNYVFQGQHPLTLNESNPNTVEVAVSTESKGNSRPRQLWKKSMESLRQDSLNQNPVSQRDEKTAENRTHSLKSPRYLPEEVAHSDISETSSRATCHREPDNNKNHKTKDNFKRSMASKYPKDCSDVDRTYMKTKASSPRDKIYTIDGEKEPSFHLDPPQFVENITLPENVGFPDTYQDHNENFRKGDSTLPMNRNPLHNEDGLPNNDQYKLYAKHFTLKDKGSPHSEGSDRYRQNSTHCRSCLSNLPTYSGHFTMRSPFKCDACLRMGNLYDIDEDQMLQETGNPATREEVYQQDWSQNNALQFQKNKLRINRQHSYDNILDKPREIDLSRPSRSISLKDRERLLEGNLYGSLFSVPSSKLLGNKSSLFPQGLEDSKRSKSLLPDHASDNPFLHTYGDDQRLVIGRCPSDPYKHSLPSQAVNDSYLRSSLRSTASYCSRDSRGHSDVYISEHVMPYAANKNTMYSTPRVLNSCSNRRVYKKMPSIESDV

As for “WT rat tissue-type plasminogen activator (tPA WT), expressed in HEK-293 cells (from UniProt P19637 33-559) (enzyme)”, the NMDA-induced calcium influx in HEK-293 cells transfected with GluN1-1b WT, GluN2A and tPA WT; change after 20 min with the antibody Glunomab 10 μg/ml (% of potentiation) in assay [1] was -18.

For “Human tissue-type plasminogen activator (tPA, Actilyse) (enzyme)”, in assay [2], the NMDA-induced calcium influx (Fura-2 video imaging) in primary cultures of mouse cortical neurons; potentiation after 45 min with tPA 300 nM was found to be 31% and the NMDA-induced calcium influx in primary cultures of mouse cortical neurons; tPA 300 nM together with the antibody of clone 6C9B6 10 μg/ml (% of potentiation) is 38. In assay [3], the NMDA-induced calcium influx (Fura-2 video imaging) in HEK-293 cells transfected with GluN1-1b WT and GluN2A; potentiation after 20 min with tPA 300 nM (% of potentiation) was found to be 27.

The record behind these values is PMC5260909.
